T1: human GFRα3 expressed with a C-terminal mFc tag (human)
T1 construct: also called hGFRα3-mFc
T1 chain: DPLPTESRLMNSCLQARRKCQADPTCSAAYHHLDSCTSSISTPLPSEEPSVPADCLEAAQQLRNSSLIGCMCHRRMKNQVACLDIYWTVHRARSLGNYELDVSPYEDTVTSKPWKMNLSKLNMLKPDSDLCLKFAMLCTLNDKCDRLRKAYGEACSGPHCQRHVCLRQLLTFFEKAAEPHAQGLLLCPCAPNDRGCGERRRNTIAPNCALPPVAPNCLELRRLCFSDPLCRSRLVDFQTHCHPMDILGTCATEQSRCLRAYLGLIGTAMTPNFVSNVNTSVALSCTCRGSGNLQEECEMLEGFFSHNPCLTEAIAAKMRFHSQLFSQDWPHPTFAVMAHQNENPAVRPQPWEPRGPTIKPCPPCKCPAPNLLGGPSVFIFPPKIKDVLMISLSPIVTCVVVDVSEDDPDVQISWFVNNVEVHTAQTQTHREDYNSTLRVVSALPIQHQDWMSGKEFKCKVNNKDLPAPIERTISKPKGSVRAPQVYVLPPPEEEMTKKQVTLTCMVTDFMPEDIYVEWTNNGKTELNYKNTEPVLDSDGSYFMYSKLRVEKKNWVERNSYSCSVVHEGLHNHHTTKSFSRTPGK

T2: human GFRα3 on HEK293/hGFRα3/hRET/SRE-luc cells (human, UniProt O60609 32-382)
T2 sequence: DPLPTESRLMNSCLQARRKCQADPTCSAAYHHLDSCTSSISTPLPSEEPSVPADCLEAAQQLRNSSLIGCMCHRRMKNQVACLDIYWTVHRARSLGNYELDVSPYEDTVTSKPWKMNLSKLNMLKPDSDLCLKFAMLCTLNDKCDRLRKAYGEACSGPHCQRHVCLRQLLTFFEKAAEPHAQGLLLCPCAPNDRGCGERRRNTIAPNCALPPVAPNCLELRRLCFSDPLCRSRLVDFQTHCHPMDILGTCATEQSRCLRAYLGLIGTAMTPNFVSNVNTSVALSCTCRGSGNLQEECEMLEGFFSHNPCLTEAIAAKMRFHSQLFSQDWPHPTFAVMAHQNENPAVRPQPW


What was measured:
[1] = target: T1, human GFRα3 expressed with a C-terminal …; test: SPR, Ab captured, 37C
Summary of the method: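 KD values come from 1:1 kinetic fits of surface plasmon resonance data, with KD (M) = kd/kₐ and t½ (min) = ln 2/(60*kd). The antibody was held on an amine-coupled anti-IgG capture surface and antigen flowed over in HBS-EP, pH 7.4, or PBS with 0.05% P20.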

[2] = target: T2, human GFRα3 on …; test: cell-based or functional assay
[3] = target: T3, human GFRα3 expressed with a C-terminal myc-myc-hexahistidine tag (human, UniProt O60609 32-374, biotinylated (sites not given) in ELISA format 2 and in the Octet cross-competition; not in SPR); test: Octet cross-competition; biotin-hGFRα3-mmH pre-saturated with first antibody H4H2294S
T3 construct: also called hGFRα3-mmh; hGFRα3-mmH
Protocol: (§1) A cross-competition assay was conducted to assess the ability of select antibodies to compete with one another for binding to human GFRα3 using an Octet RED384 biosensor (Fortebio Inc.). The entire experiment was performed at 25° C. with the flow rate of 1000 rpm in Octet HBST buffer (0.01 M HEPES pH7.4, 0.15M NaCl, 3 mM EDTA, 0.05% v/v Surfactant P20, 0.1 mg/mL BSA). To assess whether 2 antibodies were able to compete with one another for binding to their respective epitopes on biotinylated recombinant human GFRα3 expressed with a C-terminal myc-myc-hexahistidine tag (biotin-hGFRα3-mmH; SEQ ID:370), around ˜1.2 nm of biotin-hGFRα3-mmH was first captured onto streptavidin-coated Octet sensor tips (Fortebio Inc, #18-5019) by submerging the tips for 1 minute into a 10 μg/mL solution of biotin-hGFRα3-mmH. The antigen coated sensor tips were then placed into wells containing 25 μg/mL solution of a first anti-GFRα3 monoclonal antibody for 4 minutes to saturate the biotin-hGFRα3-mmH surface. The sensor tips were then subsequently dipped into wells containing 25 μ/mL solution of a second anti-GFRα3 monoclonal antibody. The sensor tips were washed in Octet HBST buffer in between every step of the experiment. The real-time binding response was monitored during the course of the experiment and the binding response at the end of every step was recorded as shown in FIG. 9. The response of mAb-2 binding to biotin-hGFRα3-mmH pre-complexed with the first antibody was compared and competitive/non-competitive behavior of different anti-GFRα3 monoclonal antibodies was determined.

[4] = target: T3, human GFRα3 expressed with a C-terminal …; test: Octet cross-competition; biotin-hGFRα3-mmH pre-saturated with first antibody H4H2295S
Protocol: as §1

[5] = target: T3, human GFRα3 expressed with a C-terminal …; test: Octet cross-competition; biotin-hGFRα3-mmH pre-saturated with first antibody H4H2342P
Protocol: as §1

Binder | Kd [1] [nM] | koff [1] [s⁻¹] | kon [1] [M⁻¹ s⁻¹] | t1/2 [1] [h] | IC50 (SRE-luc, HEK293/hGFRα3/hRET cells, 100 pM hARTEMIN-mmH) [2] [nM] | binding response of second antibody (nm) [3] [nm] | binding response of second antibody (nm) [4] [nm] | binding response of second antibody (nm) [5] [nm]
H4H2292S (antibody, human IgG4, V domains shown, human IgG4 Fc (H4H)) VH: EVQLVESGGGVVQPGRSLRLSCAASGFTFSSYGMHWVRQAPGKGLEWVSFIWYDGSNKYYADSVKGRFTISRDNSKNTLYLQMNSLTAEDTAVYYCARRGILTGTTAFDIWGQGTMVTVSS VL: DIQMTQSPSSLSASVGDRVTITCRASQSISSYLNWYQQKPGKAPKLLIYAASSLQSGVPSRFSGSGSGTDFTLTIRSLIPEDFATYYCQQTYNTPFTFGPGTKVEIK | 0.0432 | 2.57e-05 | 596000 | 7.48 | 4.6 | 1.92 | 1.8 | 1.85
H4H2291S (antibody, human IgG4, V domains shown, human IgG4 Fc (H4H)) VH: EVQLVESGGGLVQPGESLRLSCAASGFTFSNYAMSWVRQAPGKGLEWVSVISGSGGSTYYADSVKGRFTMSRDNSKNTLYLQMNSLRAEDTAVYYCAKPPSRAARYFNYGMDVWGQGTTVTVSS VL: AIRMTQSPSSVSASVGDRVTITCRASQGISSWLAWYQQKPGKAPKLLIYAASSLQSGVPSRFSGSGSGTDFTLTISSLQPEDFATYYCQQANSFPFTFGGGTKVEIK | 0.0289 | 3.84e-05 | 1.33e+06 | 5.02 | 1.3 | 0.12 | 0.2 | 0.45
H4H2295S (antibody, human IgG4, V domains shown, human IgG4 Fc (H4H)) VH: EVQLVESGGGLVQAGGSLRLSCVASGFTFSSYAMSWVRQAPGKGLEWVSAISGSGGSTYSADSVKGRFTISRDNSKNTLYLQMNSLRAEDTAVYYCTKPSSYSSSNFYYGMDVWGQGTTVTVSS VL: DIQMTQSPSSVSASVGDRVTITCRASQGISSWLAWYQQKPGKAPKLLIYTASSLQSGVPSRFSGSGSRTDFTLTISSLQPEDFATYYCQQTNSLPLTFGPGTKVEIK | 0.0301 | 4.88e-05 | 1.62e+06 | 3.95 | 1.5 | 0.04 | 0.05 | 0.31
H4H2243N2 (antibody, human IgG4, V domains shown, human IgG4 Fc (H4H)) VH: QVQLVQSGAEVKKPGASVKVSCKASGYTFTSYGIIWVRQAPGQGLEWMGWISGYNGNTNYAQNLQGRVTMTTDTSTTTAYMELRSLRSDDTAVYYCARWGIATRPYYYYGMDVWGQGTTVTVSS VL: DIQMTQSPSSLSASVGDRVTITCRASQDITNYLAWFQQKPGKAPKSLIYAASSLQSGVPSKFSGSGSGTDFTLTISSLQPEDFATYYCQQYNSYPPTFGPGTKVDIK | – | – | – | – | 0.3 | 0.03 | 0.01 | 0.11

The next lines start with the values.

Kd [1] [nM] | koff [1] [s⁻¹] | kon [1] [M⁻¹ s⁻¹] | t1/2 [1] [h] | IC50 (SRE-luc, HEK293/hGFRα3/hRET cells, 100 pM hARTEMIN-mmH) [2] [nM] | binding response of second antibody (nm) [3] [nm] | binding response of second antibody (nm) [4] [nm] | binding response of second antibody (nm) [5] [nm] | Binder
0.0132 | 3e-05 | 2.28e+06 | 6.42 | 0.92 | 1.99 | 1.85 | 1.72 | H4H2352S (antibody, human IgG4, V domains shown, human IgG4 Fc (H4H); also called H4H2352S-1) VH: EVQLVQSGAEVKKPGASVKVSCKASGYTFTNYGITWVRQAPGQGLEWMGWISAYNGNTGYAQKFQGRVTMTTDTSTSTAYMELRSLRSDDTAVYYCAREDYDFWRAFDIWGQGTMVTVSS VL: EIVLTQSPGTLSLSPGERATLSCRASQSVSSTYLAWLQQKPGQAPRLLIYGASSRATGIPDRFSGSGSGTDFTLTINRLEPEDFAVYYCQQYAYSPYTFGQGTKLEIK
0.031 | 3.39e-05 | 1.1e+06 | 5.68 | 2.3 | 0 | 0.02 | 0.16 | H4H2355S (antibody, human IgG4, V domains shown, human IgG4 Fc (H4H)) VH: EVQLVESGGGLVQPGGSLRLSCAASGFTFSSYAMSWVRQVPGKGLEWVSAISGSGDNTYNAESVKGRFTISRDNSKNMLYLQMNSLRAEDTAVYYCAKTKFSSSLLFDYWGQGTLVTVSS VL: not shown
0.0793 | 9.4e-05 | 1.19e+06 | 2.05 | 4.9 | 0.03 | 0.05 | 0.25 | H4H2357S (antibody, human IgG4, V domains shown, human IgG4 Fc (H4H)) VH: EVQLVESGGGLVQPGGSLRLSCAASTFTFSSYAMTWVRQAPGKGLEWVSSISGSGDSTYYADSVKGRFTISRDNSKNTLFLQMNSLRAEDTAVYYCAKKDGPGRYYVRYGMDVWGQGTTVTVSS VL: DIQMTQSPSSVSASVGDRVTITCRASQGISSWLAWYQQKPGKAPKLLIYTTSSLQSGVPSRFSGSGSGTDFTLTISSLQPEDFATYYCQQANSFPLTFGGGTKVDIK
0.0294 | 4.74e-05 | 1.61e+06 | 4.07 | 1.4 | 0.04 | 0.07 | 0.28 | H4H2296S (antibody, human IgG4, V domains shown, human IgG4 Fc (H4H)) VH: not shown VL: DIVMTQSPSSVSASVGDRVTITCRASQGISSWLAWYQQKPGKAPKLLIYAASSLRSGVPSRFSGSGSGTDFTLTITSLQPEDFATYYCQHTNSFPFTFGPGTKVEIK
0.0354 | 4.28e-05 | 1.21e+06 | 4.5 | 1 | 0.01 | 0.01 | 0.06 | H4H2342P (antibody, human IgG4, V domains shown, human IgG4 Fc (H4H)) VH: EVQLLESGGGLVQPGGSLRLSCAASGFTFSTYAMSWVRQAPGKGLEWVSAIRGNGVNTYYGDSMKGRFTISRDNSKDTLYLQMNSLRAEDTAVYYCAKNKWELLVFEYWGQGTLVTVSS VL: DIQMTQSPSSLSASVGDRVTITCRASQDISNYLAWYQQKPGKVPKLLIYAASTLQSGVPFRFSGSGSGTDFTLTISSLQPEDVATYYCQKYNSAPPFGPGTKVDIK

— patent publication US20140056903A1 (Regeneron, published 2014)
